{
  "source": "patent US20210283233A1",
  "target": "T1, rPfSEP-1A (recombinant polypeptide encoded by nt 2,431-3,249 of PF3D7_1021800, aa 810-1083 of PfSEP-1)",
  "T1 chain": "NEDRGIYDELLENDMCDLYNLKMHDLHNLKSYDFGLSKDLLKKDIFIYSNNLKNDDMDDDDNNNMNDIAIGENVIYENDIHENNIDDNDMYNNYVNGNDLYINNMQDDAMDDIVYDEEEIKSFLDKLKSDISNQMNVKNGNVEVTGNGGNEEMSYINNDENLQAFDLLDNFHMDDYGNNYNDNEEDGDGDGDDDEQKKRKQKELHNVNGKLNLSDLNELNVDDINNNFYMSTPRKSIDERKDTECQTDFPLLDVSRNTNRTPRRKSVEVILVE",
  "data": [
    {"protein": "rPfCDPK-5 (recombinant Plasmodium falciparum calcium-dependent protein kinase 5, PF3D7_1337800) (protein) MKETEVEDMDTNRKDGKIKKKEKIVNMKNEEVKSTTKSTLADSDEDYSIITLCTKCLSKKLEDNKNRIILDSKAFKDNRLKGRCSVSSNEDPLDNKLNLSPYFDRSQIIQEIILMNNDELSDVYEIDRYKLGKGSYGNVVKAVSKRTGQQRAIKIIEKKKIHNIERLKREILIMKQMDHPNIIKLYEVYEDNEKLYLVLELCDGGELFDKIVKYGSFSEYEAYKIMKQIFSALYYCHSKNIMHRDLKPENILYVDNTEDSPIQIIDWGFASKCMNNHNLKSVVGTPYYIAPEILRGKYDKRCDIWSSGVIMYILLCGYPPFNGKNNDEILKKVEKGEFVFDSNYWARVSDDAKDLICQCLNYNYKERIDVEQVLKHRWFKKFKSNNLIINKTLNKTLIEKFKEFHKLCKIKKLAVTCIAYQLNEKDIGKLKKTFEAFDHNGDGVLTISEIFQCLKVNDNEFDRELYFLLKQLDTDGNGLIDYTEFLAACLDHSIFQQDVICRNAFNVFDLDGDGVITKDELFKILSFSAVQVSFSKEIIENLIKEVDSNNDGFIDYDEFYKMMTGVKE", "values": [
      {"measurement": "phosphorylation", "value": "rPfCDPK-5 was found to phosphorylate rPfSEP-1A"}
    ]}
  ]
}
